Assay results taken from patent CN112480250A (UNIV SHANGHAI JIAOTONG, dated 2021).

Target: 重组人OPN-R (OPN-N端蛋白, 重组骨桥蛋白N端活性结构域 osteopontin I17-R167) (human)
Test: ForteBio BLI, biotinylated OPN-R on streptavidin sensor, antibody at 50-300 nmol/L, 1:1 model

Sequence of 重组人OPN-R (OPN-N端蛋白, 重组骨桥蛋白N端活性结构域 osteopontin I17-R167) (human) (chain, as listed by the source): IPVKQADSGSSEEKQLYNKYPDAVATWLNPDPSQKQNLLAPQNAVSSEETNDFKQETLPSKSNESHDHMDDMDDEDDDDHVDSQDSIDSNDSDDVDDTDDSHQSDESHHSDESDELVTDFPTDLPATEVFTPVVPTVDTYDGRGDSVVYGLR

Kd: 4.55 nM
B1: 抗OPN嵌合抗体(抗体72B) (antibody, V domains shown)
VH: EVMLVESGGGLLKPGGSLKLSCAASGFTFSSYAMSWVRQTPEKRLEWVATITSGGSYTNYSDSVKGRITISRDNAKNTLYLQMSSLRSEDTAMYYCAREGPAWFAYWGQGTLVTVSA
VL: DIVMTQTPLSLPVSLGDQASISCRSSQSIVHSNGNTYLEWYLQKPGQSPKLLIYKVSNRFSGVPDRFSGSGSGTDFTLKISRVEAEDLGVYYCFQGSHVPPTFGGGTKLEIKR
notes: Mouse/human IgG1 chimera made by overlap PCR and expressed in HEK293E; also called 72B抗体; OPN-Ab(72B)
